For the experiment, the target named is CD33 antigen (UniProt P20138). The experiment is described as follows: competitive binding against 125I-murine M195 on HL60 cells.
Sequence of UniProt P20138 (P20138 18-364 limits assumed): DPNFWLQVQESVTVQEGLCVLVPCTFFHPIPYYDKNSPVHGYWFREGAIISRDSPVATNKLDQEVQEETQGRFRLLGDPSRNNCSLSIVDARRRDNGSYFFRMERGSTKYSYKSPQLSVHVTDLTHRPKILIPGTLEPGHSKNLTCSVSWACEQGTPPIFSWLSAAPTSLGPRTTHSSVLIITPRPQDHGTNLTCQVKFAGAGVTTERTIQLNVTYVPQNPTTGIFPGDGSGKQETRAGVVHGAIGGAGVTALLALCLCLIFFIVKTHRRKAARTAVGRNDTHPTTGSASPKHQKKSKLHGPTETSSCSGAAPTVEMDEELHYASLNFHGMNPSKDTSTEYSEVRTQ

aglycosylated chimeric M195 antibody had a fold increase in binding affinity against the chimeric antibody of 8 fold. murine M195 antibody had a Ka of 2e+09 M⁻¹.

B1: humanized M195 antibody (antibody, INN chains, looked up, human IgG1, V domains shown)
VH: QVQLVQSGAEVKKPGSSVKVSCKASGYTFTDYNMHWVRQAPGQGLEWIGYIYPYNGGTGYNQKFKSKATITADESTNTAYMELSSLRSEDTAVYYCARGRPAMDYWGQGTLVTVSS
VL: DIQMTQSPSSLSASVGDRVTITCRASESVDNYGISFMNWFQQKPGKAPKLLIYAASNQGSGVPSRFSGSGSGTDFTLTISSLQPDDFATYYCQQSKEVPWTFGQGTKVEIK
Consider B1, for which the fold increase in binding affinity against the chimeric (or murine) antibody was 8 fold.

Values taken from US6933368.
